In patent US20060229240A1 (GARDELL ET AL, published 2006):
Positions of bridges follow the written chain, without caps; N, C: chain ends. Non-standard residues stand in square brackets, D forms with d. No end group written: not given here. hArg = N=C(N)NCCCC[C@H](N)C(=O)O; Aib = CC(C)(N)C(=O)O

T1: PTH/PTHrP receptor (P1R), wild-type, full-length (human, UniProt Q03431 27-593)
T1 sequence (looked up): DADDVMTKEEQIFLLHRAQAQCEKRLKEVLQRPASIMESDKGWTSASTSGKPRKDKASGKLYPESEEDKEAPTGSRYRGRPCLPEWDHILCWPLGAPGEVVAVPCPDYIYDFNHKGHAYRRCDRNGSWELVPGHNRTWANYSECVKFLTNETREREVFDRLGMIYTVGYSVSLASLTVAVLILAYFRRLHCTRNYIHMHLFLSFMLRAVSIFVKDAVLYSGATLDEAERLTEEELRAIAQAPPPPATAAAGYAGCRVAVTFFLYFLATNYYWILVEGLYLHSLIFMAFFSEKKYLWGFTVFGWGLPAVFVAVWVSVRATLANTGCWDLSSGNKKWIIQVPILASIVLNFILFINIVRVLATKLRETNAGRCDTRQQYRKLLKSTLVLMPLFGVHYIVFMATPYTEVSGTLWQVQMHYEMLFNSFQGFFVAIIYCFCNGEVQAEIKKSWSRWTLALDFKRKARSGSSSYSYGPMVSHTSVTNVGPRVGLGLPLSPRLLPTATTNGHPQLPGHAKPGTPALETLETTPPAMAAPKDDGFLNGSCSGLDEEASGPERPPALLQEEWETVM

T2: P1R-DelNt (truncated human P1R deleted for residues 24-181) (human, UniProt Q03431 182-593)
T2 sequence (looked up): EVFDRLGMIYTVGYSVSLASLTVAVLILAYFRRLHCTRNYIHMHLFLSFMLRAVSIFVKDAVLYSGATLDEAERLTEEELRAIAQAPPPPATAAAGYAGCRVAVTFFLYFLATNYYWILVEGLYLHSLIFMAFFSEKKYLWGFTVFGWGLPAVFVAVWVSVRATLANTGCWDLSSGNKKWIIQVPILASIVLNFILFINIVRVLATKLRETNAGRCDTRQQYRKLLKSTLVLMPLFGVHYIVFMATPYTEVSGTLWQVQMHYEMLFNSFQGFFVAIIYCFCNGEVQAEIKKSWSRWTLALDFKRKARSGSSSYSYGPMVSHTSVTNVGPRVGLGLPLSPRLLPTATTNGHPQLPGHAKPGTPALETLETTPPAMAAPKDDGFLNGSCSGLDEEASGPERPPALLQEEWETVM

B1: [Ala^10]PTH(1-11) (peptide)
peptide: AVAEIQLMHAR-NH2
B2: [Ala^6, Ala^10]PTH(1-11) (peptide)
peptide: AVAEIALMHAR-NH2
B3: [Ala^6]PTH(1-11) (peptide)
peptide: AVAEIALMHQR-NH2
B4: [Aib^1,3, Ala^6,10]PTH(1-14) (peptide)
peptide: [Aib]V[Aib]EIALMHA[hArg]AKW-NH2
modifications: N-terminus assumed
SMILES: CC[C@H](C)[C@H](NC(=O)[C@H](CCC(=O)O)NC(=O)C(C)(C)NC(=O)[C@@H](NC(=O)C(C)(C)N)C(C)C)C(=O)N[C@@H](C)C(=O)N[C@@H](CC(C)C)C(=O)N[C@@H](CCSC)C(=O)N[C@@H](Cc1c[nH]cn1)C(=O)N[C@@H](C)C(=O)N[C@@H](CCCCNC(=N)N)C(=O)N[C@@H](C)C(=O)N[C@@H](CCCCN)C(=O)N[C@@H](Cc1c[nH]c2ccccc12)C(N)=O
B5: [Aib^1,3, Ala^10]PTH(1-14) (peptide)
peptide: [Aib]V[Aib]EIQLMHA[hArg]AKW-NH2
modifications: N-terminus assumed
SMILES: CC[C@H](C)[C@H](NC(=O)[C@H](CCC(=O)O)NC(=O)C(C)(C)NC(=O)[C@@H](NC(=O)C(C)(C)N)C(C)C)C(=O)N[C@@H](CCC(N)=O)C(=O)N[C@@H](CC(C)C)C(=O)N[C@@H](CCSC)C(=O)N[C@@H](Cc1c[nH]cn1)C(=O)N[C@@H](C)C(=O)N[C@@H](CCCCNC(=N)N)C(=O)N[C@@H](C)C(=O)N[C@@H](CCCCN)C(=O)N[C@@H](Cc1c[nH]c2ccccc12)C(N)=O
B6: [Aib^1,3, Ala^6]PTH(1-14) (peptide)
peptide: [Aib]V[Aib]EIALMHQ[hArg]AKW-NH2
modifications: N-terminus assumed
SMILES: CC[C@H](C)[C@H](NC(=O)[C@H](CCC(=O)O)NC(=O)C(C)(C)NC(=O)[C@@H](NC(=O)C(C)(C)N)C(C)C)C(=O)N[C@@H](C)C(=O)N[C@@H](CC(C)C)C(=O)N[C@@H](CCSC)C(=O)N[C@@H](Cc1c[nH]cn1)C(=O)N[C@@H](CCC(N)=O)C(=O)N[C@@H](CCCCNC(=N)N)C(=O)N[C@@H](C)C(=O)N[C@@H](CCCCN)C(=O)N[C@@H](Cc1c[nH]c2ccccc12)C(N)=O
B7: [M]PTH(1-14) ([Ala^1,3,12,Gln^10,Har^11,Trp^14]PTH(1-14)amide; AlaValAlaGluIleGlnLeuMetHisGlnHarAlaLysTrp-amide) (peptide)
peptide: AVAEIQLMHQ[hArg]AKW-NH2
modifications: N-terminus assumed
SMILES: CC[C@H](C)[C@H](NC(=O)[C@H](CCC(=O)O)NC(=O)[C@H](C)NC(=O)[C@@H](NC(=O)[C@H](C)N)C(C)C)C(=O)N[C@@H](CCC(N)=O)C(=O)N[C@@H](CC(C)C)C(=O)N[C@@H](CCSC)C(=O)N[C@@H](Cc1c[nH]cn1)C(=O)N[C@@H](CCC(N)=O)C(=O)N[C@@H](CCCCNC(=N)N)C(=O)N[C@@H](C)C(=O)N[C@@H](CCCCN)C(=O)N[C@@H](Cc1c[nH]c2ccccc12)C(N)=O
B8: [(Glu^6, Lys^10)lac.]PTH(1-14), cyclized via a 6-10 lactam bridge (peptide)
peptide: AVAEIELMHK[hArg]AKW-NH2
modifications: lactam 6-10; N-terminus assumed
SMILES: CC[C@H](C)[C@H](NC(=O)[C@H](CCC(=O)O)NC(=O)[C@H](C)NC(=O)[C@@H](NC(=O)[C@H](C)N)C(C)C)C(=O)N[C@H]1CCC(=O)NCCCC[C@@H](C(=O)N[C@@H](CCCCNC(=N)N)C(=O)N[C@@H](C)C(=O)N[C@@H](CCCCN)C(=O)N[C@@H](Cc2c[nH]c3ccccc23)C(N)=O)NC(=O)[C@H](Cc2c[nH]cn2)NC(=O)[C@H](CCSC)NC(=O)[C@H](CC(C)C)NC1=O
B9: [Lys^6, Glu^10]PTH(1-14) (peptide)
peptide: AVAEIKLMHE[hArg]AKW-NH2
modifications: N-terminus assumed
SMILES: CC[C@H](C)[C@H](NC(=O)[C@H](CCC(=O)O)NC(=O)[C@H](C)NC(=O)[C@@H](NC(=O)[C@H](C)N)C(C)C)C(=O)N[C@@H](CCCCN)C(=O)N[C@@H](CC(C)C)C(=O)N[C@@H](CCSC)C(=O)N[C@@H](Cc1c[nH]cn1)C(=O)N[C@@H](CCC(=O)O)C(=O)N[C@@H](CCCCNC(=N)N)C(=O)N[C@@H](C)C(=O)N[C@@H](CCCCN)C(=O)N[C@@H](Cc1c[nH]c2ccccc12)C(N)=O
B10: [Glu^6, Lys^10]PTH(1-14) (linear) (peptide)
peptide: AVAEIELMHK[hArg]AKW-NH2
modifications: N-terminus assumed
SMILES: CC[C@H](C)[C@H](NC(=O)[C@H](CCC(=O)O)NC(=O)[C@H](C)NC(=O)[C@@H](NC(=O)[C@H](C)N)C(C)C)C(=O)N[C@@H](CCC(=O)O)C(=O)N[C@@H](CC(C)C)C(=O)N[C@@H](CCSC)C(=O)N[C@@H](Cc1c[nH]cn1)C(=O)N[C@@H](CCCCN)C(=O)N[C@@H](CCCCNC(=N)N)C(=O)N[C@@H](C)C(=O)N[C@@H](CCCCN)C(=O)N[C@@H](Cc1c[nH]c2ccccc12)C(N)=O
B11: PTH(1-34) ([Tyr^34]hPTH(1-34)amide) (peptide)
peptide: SVSEIQLMHNLGKHLNSMERVEWLRKKLQDVHNY-NH2
notes: Human PTH(1-34) analog with Tyr at 34; also called [Tyr^34]hPTH(1-34)NH2; PTH(1-34) scaffold peptide
B12: [Ala^6,10]PTH(1-34) (peptide)
peptide: SVSEIALMHALGKHLNSMERVEWLRKKLQDVHNY-NH2
notes: Double Ala analog of [Tyr^34]hPTH(1-34)amide
B13: [Ala^6]PTH(1-34) (peptide)
peptide: SVSEIALMHNLGKHLNSMERVEWLRKKLQDVHNY-NH2
notes: Gln6->Ala analog of [Tyr^34]hPTH(1-34)amide

Each binder was assayed against T1, PTH/PTHrP receptor (P1R), wild-type, … (assay: cell-based or functional assay).

cAMP EC50	cAMP Emax (%)	Binder
11 µM	88%	B1
160 µM	41%	B2
330 µM	26%	B3

These binders were tested against T2, P1R-DelNt (truncated human P1R deleted …) (assay: cell-based or functional assay).

cAMP EC50	cAMP Emax (%)	Binder
0.024 µM	100%	B4
39 µM	79%	B1
0.081 µM	104%	B5
170 µM	42%	B2
320 µM	14%	B3
0.146 µM	101%	B6

Target: T1, PTH/PTHrP receptor (P1R), wild-type, …
Assay: cell-based or functional assay
Remark: another data set of the same source

cAMP EC50	cAMP Emax (%)	Binder
0.12 µM	100%	B7
27 µM	52%	B8
130 µM	37%	B9
40 µM	52%	B10

Target: T1, PTH/PTHrP receptor (P1R), wild-type, …
Assay: cell-based or functional assay
Remark: another data set of the same source

cAMP EC50	cAMP Emax (%)	Binder
0.27 µM	100%	B11
0.3 µM	121%	B12
0.17 µM	104%	B13

Target: T2, P1R-DelNt (truncated human P1R deleted …)
Assay: cell-based or functional assay
Remark: another data set of the same source

cAMP Emax (%)	cAMP EC50	Binder
44%		B11
44%	19 µM	B12
4.5%	> 100 µM	B13

Target: T1, PTH/PTHrP receptor (P1R), wild-type, …
Assay: cell-based or functional assay
Remark: another data set of the same source

cAMP EC50	cAMP Emax (%)	Binder
1.9 µM	100%	B11
2.2 µM	107%	B12
4.9 µM	105%	B13

Each binder was assayed against T1, PTH/PTHrP receptor (P1R), wild-type, … (assay: competition with 125I-[Ala3,12,Gln10,Har11,Trp14,Arg19,Tyr21]PTH(1-21)-amide tracer on HKRK-B28 cells expressing P1R).
Procedure: Competition Binding. Binding reactions were performed with […] cells or in COS-7 cells in 24-well plates. The cells were rinsed with 0.5 mL of binding buffer, and then treated successively with 100 μL binding buffer, 100 μL of binding buffer containing various amounts of unlabeled competitor ligand, and 100 μL of binding buffer containing ca. 100,000 cpm of ¹²⁵I-[M]PTH(1-21)(SEQ. ID. NO. 16) or ¹²⁵I-[Aib^{1,3},M]PTH(1-21)(SEQ. ID. NO. 17) (ca. 26 fmol; final volume=300 μL). Incubations were 4 to 6 h at 4° C., at which time near equilibrium conditions were attained. Cells were then placed on ice, the binding medium was removed, and the monolayer was rinsed three times with 0.5 mL of cold binding buffer. The cells were subsequently lysed with 0.5 mL 5N NaOH and counted for radioactivity. For each tracer and in each experiment, the non-specific binding was determined as the radioactivity that bound in the presence of the same unlabeled peptide at a concentration of 1 μM, and was ˜1% of total radioactivity added for each tracer. The maximum specific binding (B₀) was the total radioactivity bound in the absence of competing ligand, corrected for nonspecific binding, and for each tracer, ranged from 8% to 20% of the total radioactivity added. Nonlinear regression was used to calculate binding IC₅₀ values (see below). Scatchard transformations of homologous competition binding data derived from studies with 26 fmol of ¹²⁵I-[Aib^{1,3},M]PTH(1-21) (SEQ. ID. NO. 17) were employed for estimations of apparent equilibrium dissociation constant (kDapps) and total number of ligand binding sites (Bₘₐₓ), assuming a single class of binding sites and equal affinities of the iodinated and non iodinated ligand.
The peptide PTH(1-34) ([Tyr³⁴]bPTH(1-34)NH₂) (SEQ. ID. NO. 10) and analogs containing substitutions at positions 6 and/or 10 in place of Gln and Asn, respectively, were evaluated in HKRK-B28 cells for the capacity to stimulate cAMP accumulation, and to inhibit the binding of ¹²⁵I-[Ala^{3,12}, Gln¹⁰, Har¹¹, Trp¹⁴,Arg¹⁹, Tyr²¹]PTH(1-21)-amide (SEQ. ID. NO. 30) tracer radioligand.

IC50	Binder
6 µM	B11
3.9 µM	B12
4.5 µM	B13
